# Values of other authors in publication PMC6389863.
# Experiments:
# [1] = target: Tyr149 (UniProt position 149, TPQSPYGKSKL)
# [2] = target: Glu73 (UniProt position 120, GRTWREADINY)
# [3] = target: Asp76 (UniProt position 102, GSPGADRVVFN)
# [4] = target: Cys87 (UniProt position 87, RLGRICLDVLK)
# [5] = target: Asp102 (UniProt position 102, LTINNDITLLK)
# [6] = target: Asp70 (UniProt position 70, KLFNQDVDAAV)
# [7] = target: Lys39 (UniProt position 39, EFPGGKIEMGE)
# [8] = test system: Tyr31
# [9] = target: His149 (UniProt position 177, ITFTNHVNAWK)
# [10] = target: His18 (UniProt position 19, KCAQCHTVEKG)
# [11] = target: Asp26 (UniProt position 26, KLVVVDFSATW); conditions: reduced (active-site dithiol) thioredoxin
# [12] = target: Cys25 (UniProt position 157, GSCGSCWAFSA)
# [13] = target: His72 (UniProt position 73, GINTAHKARQV)
# [14] = target: Cys25 (UniProt position 158, GSCGSCWAFSA)
# [15] = test system: Lys55
substance,measurement,setting,value
UDP-galactose 4-epimerase (Escherichia coli),pKa,[1],6.08
Barnase (not stated (inferred Bacillus amyloliquefaciens)),pKa,[2],2.1
Ribonuclease T1 (RNase T1) (not stated (inferred Aspergillus oryzae)),pKa,[3],0.5
"Ubiquitin-conjugating enzyme Ubc13 (not stated (PDB 1JBB is Saccharomyces cerevisiae Ubc13, inferred))",pKa,[4],11.1
Chymotrypsinogen A (bovine) (Bos taurus),pKa,[5],1.36
T4 lysozyme (Enterobacteria phage T4 (inferred)),pKa,[6],0.5
MutT enzyme (not stated (inferred Escherichia coli)),pKa,[7],8.4
"Ovomucoid third domain, silver pheasant (OMSVP3) (Lophura nycthemera (silver pheasant))",pKa,[8],12.5
Xylanase (Bacillus circulans xylanase) (Bacillus circulans (from the title of ref 20)),pKa,[9],<2.3
Cytochrome c (horse) (Equus caballus),pKa,[10],2.5
"Thioredoxin (human, reduced) (Homo sapiens)",pKa,[11],9.9
Papaya protease (PDB 1PPO; caricain / papaya protease omega) (Carica papaya (inferred)),pKa,[12],2.88
Bovine heart phosphotyrosyl phosphatase (low molecular weight PTP) (Bos taurus),pKa,[13],9.19
Papain (Carica papaya (inferred)),pKa,[14],3.32
Calbindin D9k (bovine) (Bos taurus),pKa,[15],12.12
